Results reported in patent publication US20240368668A1, “SUBSTRATES AND BIOMARKERS OF ADAMTS7” (The Broad Institute, Inc., priority 2021, published 2024).
Square brackets hold non-standard residues; d marks the D form. Ends that are not written are not given here. deamidated = deamidated asparagine; Met(O) = CS(=O)CC[C@H](N)C(=O)O

Target: T1, mouse ADAMTS7 (Mus musculus, UniProt Q68SA9, E373Q)
T1 construct: Full-length mouse Adamts7 1-1857 (Uniprot Q68SA9, WT or E373Q catalytic mutant); expressed in transfected cells; host or cells: Human Coronary Artery Smooth Muscle Cells (HCA-SMC, Lonza), adenovirus 50 MOI
T1 sequence (Q68SA9 221-1657 E373Q): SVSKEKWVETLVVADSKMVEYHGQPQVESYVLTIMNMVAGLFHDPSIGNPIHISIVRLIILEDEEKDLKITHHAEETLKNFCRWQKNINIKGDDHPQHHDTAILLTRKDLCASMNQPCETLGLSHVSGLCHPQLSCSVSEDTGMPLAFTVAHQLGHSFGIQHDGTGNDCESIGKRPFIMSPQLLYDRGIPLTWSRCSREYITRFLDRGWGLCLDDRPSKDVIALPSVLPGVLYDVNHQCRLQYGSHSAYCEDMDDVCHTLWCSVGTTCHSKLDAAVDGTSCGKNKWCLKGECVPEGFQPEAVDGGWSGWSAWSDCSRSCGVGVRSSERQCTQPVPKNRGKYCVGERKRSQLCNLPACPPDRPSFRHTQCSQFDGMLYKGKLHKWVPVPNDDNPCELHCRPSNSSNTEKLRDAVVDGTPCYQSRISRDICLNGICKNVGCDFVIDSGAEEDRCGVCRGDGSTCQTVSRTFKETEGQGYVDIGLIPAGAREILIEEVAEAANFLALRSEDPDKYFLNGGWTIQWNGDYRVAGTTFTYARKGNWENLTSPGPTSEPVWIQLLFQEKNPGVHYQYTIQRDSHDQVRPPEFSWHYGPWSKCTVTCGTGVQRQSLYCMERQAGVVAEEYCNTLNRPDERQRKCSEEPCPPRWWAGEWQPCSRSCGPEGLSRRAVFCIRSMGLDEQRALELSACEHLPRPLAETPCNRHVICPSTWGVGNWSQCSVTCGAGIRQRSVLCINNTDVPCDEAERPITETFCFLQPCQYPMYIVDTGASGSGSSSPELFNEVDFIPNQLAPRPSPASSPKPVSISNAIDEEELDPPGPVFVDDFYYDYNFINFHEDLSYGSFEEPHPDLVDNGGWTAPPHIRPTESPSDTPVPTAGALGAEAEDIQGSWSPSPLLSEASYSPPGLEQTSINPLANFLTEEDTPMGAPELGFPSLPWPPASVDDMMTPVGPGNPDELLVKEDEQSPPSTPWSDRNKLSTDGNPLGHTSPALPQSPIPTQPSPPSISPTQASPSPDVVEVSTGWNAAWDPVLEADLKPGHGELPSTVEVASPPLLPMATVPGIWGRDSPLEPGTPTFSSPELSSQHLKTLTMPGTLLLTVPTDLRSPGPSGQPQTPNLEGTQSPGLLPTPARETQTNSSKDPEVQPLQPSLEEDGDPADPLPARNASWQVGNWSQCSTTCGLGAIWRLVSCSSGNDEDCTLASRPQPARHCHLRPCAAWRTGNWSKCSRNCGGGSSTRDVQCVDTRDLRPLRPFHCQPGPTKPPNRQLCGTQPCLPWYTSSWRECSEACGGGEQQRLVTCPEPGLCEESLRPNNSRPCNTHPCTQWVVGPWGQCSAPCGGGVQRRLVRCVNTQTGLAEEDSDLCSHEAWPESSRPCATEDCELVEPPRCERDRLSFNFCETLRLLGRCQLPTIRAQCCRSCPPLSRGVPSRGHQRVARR
Assay: TMT10 TAILS N-terminomics, SMC1 experiment (Ad-mADAMTS7 WT vs EQ vs Luc, technical replicates, trypsin digest)
Type: cell-based
Conditions: TAILS neo-N-terminal peptide abundance; log fold change, Ad-mADAMTS7 EQ over Luc
In short: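 Full-length mouse ADAMTS7 (WT or E373Q mutant, C-terminal 3xFLAG) or luciferase was transduced via adenovirus, 50 MOI, into HCA-SMC (SMC1, SMC2) or HUVEC. SMC1: pooled media, technical triplicates 400 ug; SMC2: process triplicates 300 ug; HUVEC: process triplicates 200 ug, bFGF2 10 ng/ml.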

| Substance | logFC.mEQ.over.Luc |
| --- | --- |
| CDC37_43 (FQKEKEELDR; listed as Homo sapiens) | −0.12 |
| CDH11_467 (HQEAKVPVAIR; listed as Homo sapiens) | −0.03 |
| CLEC11A_50 (HLQEALGLPAGR; listed as Homo sapiens) | −0.34 |
| COL1A2_80 (QYDGKGVGLGPGPMGLMGPR; listed as Homo sapiens) | 0.19 |
| COL1A2_91 (GPMGLMGPR; listed as Homo sapiens) | −0.07 |
| COL1A2_113 (FQGPAGEPGEPGQTGPAGAR; listed as Homo sapiens) | −0.61 |
| COL1A2_270 (VGNAGPAGPAGPR; listed as Homo sapiens) | 0.70 |
| COL1A2_305 (LTGAKGAAGLPGVAGAPGLPGPR; listed as Homo sapiens) | −0.16 |
| COL1A2_389 (SAGPPGPPGLR; listed as Homo sapiens) | 0.39 |
| COL1A2_425 (ASGPAGVR; listed as Homo sapiens) | −0.17 |
| COL1A2_630 (VGTAGPSGPSGLPGER; listed as Homo sapiens) | −0.27 |
| COL1A2_681 (VGAPGPAGATGDR; listed as Homo sapiens) | −0.34 |
| COL1A2_731 (AAGQPGAKGER; listed as Homo sapiens) | −0.18 |
| COL1A2_866 (LLGAPGILGLPGSR; listed as Homo sapiens) | −0.24 |
| COL1A2_960 (AGAPGPHGPVGPAGKHGNR; listed as Homo sapiens) | −0.35 |
| COL1A2_1028 (LQGLPGIAGHHGDQGAPGSVGPAGPR; listed as Homo sapiens) | −0.28 |
| COL1A2_1037 (HHGDQGAPGSVGPAGPR; listed as Homo sapiens) | −0.79 |
| COL1A2_1127 (SLRPKDYEVDATLKSLNNQIETLLTPEGSR; listed as Homo sapiens) | −0.45 |
| COL4A2_71 (YNGPPGLQGFPGLQGR; listed as Homo sapiens) | −0.37 |
| COL4A2_172 (YALPKEER; listed as Homo sapiens) | 0.76 |
| COL5A1_544 (SQAQAILQQAR; listed as Homo sapiens) | −0.21 |
| COL8A1_90 (MKEIQPAPR; listed as Homo sapiens) | −0.25 |
| COL18A1_1505 (LQPPVVQLHDSNPYPR; listed as Homo sapiens) | −0.01 |
| ECM1_43 (YAAPPSPPLSR; listed as Homo sapiens) | −0.04 |
| LTBP2_1602 (EAGVHFR; listed as Homo sapiens) | 0.64 |
| MAN2A1_51 (LQEKIDHLER; listed as Homo sapiens) | 0.18 |

| Substance | logFC.mEQ.over.Luc |
| --- | --- |
| MAP1B_1065 (LTTPTKQLGAQSPGR; listed as Homo sapiens) | −0.20 |
| MAP4_815 (AVASTGPSSR; listed as Homo sapiens) | 0.10 |
| MAP4_816 (VASTGPSSR; listed as Homo sapiens) | −0.18 |
| MGAT4B_28 (LSGQKGDVVDVYQR; listed as Homo sapiens) | −0.23 |
| MMP1_24 (LETQEQDVDLVQKYLEKYYNLKN(deamidated)DGR; listed as Homo sapiens) | −0.08 |
| NID2_291 (HSSVPLGR; listed as Homo sapiens) | −0.08 |
| NID2_374 (VGGPDLKGQVEPWDER; listed as Homo sapiens) | −0.14 |
| NID2_467 (LEDNIGSNTEVFTYNAANKETCEHNHR; listed as Homo sapiens) | −0.09 |
| NID2_951 (YAYPGAR; listed as Homo sapiens) | −0.58 |
| NUCB1_228 (LKEVWEELDGLDPNR; listed as Homo sapiens) | 0.07 |
| NUCB1_317 (FLASTQR; listed as Homo sapiens) | −0.11 |
| NUCB1_389 (LQQAVLHMEQR; listed as Homo sapiens) | 0.15 |
| OS9_54 ([code q]SQSSDVVIVSSKYKQR; also: modified N-terminal Gln; listed as Homo sapiens) | −0.14 |
| OS9_55 (SQSSDVVIVSSKYKQR; listed as Homo sapiens) | −0.06 |
| PAPPA_41 (AAGPATCATR; listed as Homo sapiens) | 0.35 |
| PDLIM4_104 (IDPEIQDGSPTTSR; listed as Homo sapiens) | −0.13 |
| POLR3G_88 (LFCSHWSHIPGFK; listed as Homo sapiens) | 0.00 |
| POSTN_413 (FSDDTLSMDQR; listed as Homo sapiens) | −0.02 |
| POSTN_754 (IITGPEIKYTR; listed as Homo sapiens) | 0.10 |
| POSTN_790 (FIEGGDGHLFEDEEIKR; listed as Homo sapiens) | −0.31 |
| POSTN_807 (LLQGDTPVR; listed as Homo sapiens) | −0.07 |
| PPP1R18_295 (LSETLTR; listed as Homo sapiens) | −0.08 |
| PSAP_171 (F[Met(O)]ANIPLLLYPQDGPR; listed as Homo sapiens) | 0.10 |
| PXDN_1341 (SYQEDKPTKKTR; listed as Homo sapiens) | 1.36 |
| PXDN_1393 (QKTITDLR; listed as Homo sapiens) | 0.10 |
